Measurements from patent US12630600B2 (MEDIMMUNE LIMITED, priority 2022, dated 2026).
Starred links: 1 amine or outer side, 2 acyl side, 3 side chain; linkers in the order of their positions; H or OH if unused. Non-standard residues stand in square brackets, D forms with d. Groups on a side chain read outwards from the residue. No end group written: not given here. *: point of attachment. C20 diacid = O=C(O)CCCCCCCCCCCCCCCCCCC(=O)*; C18 diacid = O=C(O)CCCCCCCCCCCCCCCCC(=O)*; γGlu = O=C(O)[C@H](CCC(=O)[*:2])N[*:1]; αMeF = C[C@](N)(Cc1ccccc1)C(=O)O; AEEA = NCCOCCOCC(=O)O; Aib = CC(C)(N)C(=O)O

B1: Peptide 407 (peptide)
peptide: H[Aib]QGTFTSDVSK[αMeF]LDTK([AEEA-AEEA-γGlu-C20 diacid])RAQDFVRWLEA[Aib]G-OH
modifications: N-terminus assumed
SMILES: CC(C)C[C@H](NC(=O)[C@H](Cc1c[nH]c2ccccc12)NC(=O)[C@H](CCCNC(=N)N)NC(=O)[C@@H](NC(=O)[C@H](Cc1ccccc1)NC(=O)[C@H](CC(=O)O)NC(=O)[C@H](CCC(N)=O)NC(=O)[C@H](C)NC(=O)[C@H](CCCNC(=N)N)NC(=O)[C@H](CCCCNC(=O)COCCOCCNC(=O)COCCOCCNC(=O)CC[C@H](NC(=O)CCCCCCCCCCCCCCCCCCC(=O)O)C(=O)O)NC(=O)[C@@H](NC(=O)[C@H](CC(=O)O)NC(=O)[C@H](CC(C)C)NC(=O)[C@](C)(Cc1ccccc1)NC(=O)[C@H](CCCCN)NC(=O)[C@H](CO)NC(=O)[C@@H](NC(=O)[C@H](CC(=O)O)NC(=O)[C@H](CO)NC(=O)[C@@H](NC(=O)[C@H](Cc1ccccc1)NC(=O)[C@@H](NC(=O)CNC(=O)[C@H](CCC(N)=O)NC(=O)C(C)(C)NC(=O)[C@@H](N)Cc1c[nH]cn1)[C@@H](C)O)[C@@H](C)O)C(C)C)[C@@H](C)O)C(C)C)C(=O)N[C@@H](CCC(=O)O)C(=O)N[C@@H](C)C(=O)NC(C)(C)C(=O)NCC(=O)O
B2: Peptide 408 (peptide)
peptide: H[Aib]QGTFTSDVSK[αMeF]LDTK([AEEA-AEEA-γGlu-γGlu-C20 diacid])RAQDFVRWLEA[Aib]G-OH
modifications: N-terminus assumed
SMILES: CC(C)C[C@H](NC(=O)[C@H](Cc1c[nH]c2ccccc12)NC(=O)[C@H](CCCNC(=N)N)NC(=O)[C@@H](NC(=O)[C@H](Cc1ccccc1)NC(=O)[C@H](CC(=O)O)NC(=O)[C@H](CCC(N)=O)NC(=O)[C@H](C)NC(=O)[C@H](CCCNC(=N)N)NC(=O)[C@H](CCCCNC(=O)COCCOCCNC(=O)COCCOCCNC(=O)CC[C@H](NC(=O)CC[C@H](NC(=O)CCCCCCCCCCCCCCCCCCC(=O)O)C(=O)O)C(=O)O)NC(=O)[C@@H](NC(=O)[C@H](CC(=O)O)NC(=O)[C@H](CC(C)C)NC(=O)[C@](C)(Cc1ccccc1)NC(=O)[C@H](CCCCN)NC(=O)[C@H](CO)NC(=O)[C@@H](NC(=O)[C@H](CC(=O)O)NC(=O)[C@H](CO)NC(=O)[C@@H](NC(=O)[C@H](Cc1ccccc1)NC(=O)[C@@H](NC(=O)CNC(=O)[C@H](CCC(N)=O)NC(=O)C(C)(C)NC(=O)[C@@H](N)Cc1c[nH]cn1)[C@@H](C)O)[C@@H](C)O)C(C)C)[C@@H](C)O)C(C)C)C(=O)N[C@@H](CCC(=O)O)C(=O)N[C@@H](C)C(=O)NC(C)(C)C(=O)NCC(=O)O
B3: Peptide 410 (peptide)
peptide: H[Aib]QGTFTSDVSK[αMeF]LDTK([AEEA-AEEA-γGlu-C20 diacid])RARDFVAWLL[Aib]TE-OH
modifications: N-terminus assumed
SMILES: CC(C)C[C@H](NC(=O)[C@H](Cc1c[nH]c2ccccc12)NC(=O)[C@H](C)NC(=O)[C@@H](NC(=O)[C@H](Cc1ccccc1)NC(=O)[C@H](CC(=O)O)NC(=O)[C@H](CCCNC(=N)N)NC(=O)[C@H](C)NC(=O)[C@H](CCCNC(=N)N)NC(=O)[C@H](CCCCNC(=O)COCCOCCNC(=O)COCCOCCNC(=O)CC[C@H](NC(=O)CCCCCCCCCCCCCCCCCCC(=O)O)C(=O)O)NC(=O)[C@@H](NC(=O)[C@H](CC(=O)O)NC(=O)[C@H](CC(C)C)NC(=O)[C@](C)(Cc1ccccc1)NC(=O)[C@H](CCCCN)NC(=O)[C@H](CO)NC(=O)[C@@H](NC(=O)[C@H](CC(=O)O)NC(=O)[C@H](CO)NC(=O)[C@@H](NC(=O)[C@H](Cc1ccccc1)NC(=O)[C@@H](NC(=O)CNC(=O)[C@H](CCC(N)=O)NC(=O)C(C)(C)NC(=O)[C@@H](N)Cc1c[nH]cn1)[C@@H](C)O)[C@@H](C)O)C(C)C)[C@@H](C)O)C(C)C)C(=O)N[C@@H](CC(C)C)C(=O)NC(C)(C)C(=O)N[C@H](C(=O)N[C@@H](CCC(=O)O)C(=O)O)[C@@H](C)O
B4: Peptide 411 (peptide)
peptide: H[Aib]QGTFTSDVSK[αMeF]LDTK([AEEA-AEEA-γGlu-C18 diacid])RAQDFVAWLEAGG-OH
modifications: N-terminus assumed
SMILES: CC(C)C[C@H](NC(=O)[C@H](Cc1c[nH]c2ccccc12)NC(=O)[C@H](C)NC(=O)[C@@H](NC(=O)[C@H](Cc1ccccc1)NC(=O)[C@H](CC(=O)O)NC(=O)[C@H](CCC(N)=O)NC(=O)[C@H](C)NC(=O)[C@H](CCCNC(=N)N)NC(=O)[C@H](CCCCNC(=O)COCCOCCNC(=O)COCCOCCNC(=O)CC[C@H](NC(=O)CCCCCCCCCCCCCCCCC(=O)O)C(=O)O)NC(=O)[C@@H](NC(=O)[C@H](CC(=O)O)NC(=O)[C@H](CC(C)C)NC(=O)[C@](C)(Cc1ccccc1)NC(=O)[C@H](CCCCN)NC(=O)[C@H](CO)NC(=O)[C@@H](NC(=O)[C@H](CC(=O)O)NC(=O)[C@H](CO)NC(=O)[C@@H](NC(=O)[C@H](Cc1ccccc1)NC(=O)[C@@H](NC(=O)CNC(=O)[C@H](CCC(N)=O)NC(=O)C(C)(C)NC(=O)[C@@H](N)Cc1c[nH]cn1)[C@@H](C)O)[C@@H](C)O)C(C)C)[C@@H](C)O)C(C)C)C(=O)N[C@@H](CCC(=O)O)C(=O)N[C@@H](C)C(=O)NCC(=O)NCC(=O)O
B5: Peptide 409 (peptide)
peptide: H[Aib]QGTFTSDVSK[αMeF]LDTK([AEEA-AEEA-γGlu-C18 diacid])RARDFVAWLL[Aib]TE-OH
modifications: N-terminus assumed
SMILES: CC(C)C[C@H](NC(=O)[C@H](Cc1c[nH]c2ccccc12)NC(=O)[C@H](C)NC(=O)[C@@H](NC(=O)[C@H](Cc1ccccc1)NC(=O)[C@H](CC(=O)O)NC(=O)[C@H](CCCNC(=N)N)NC(=O)[C@H](C)NC(=O)[C@H](CCCNC(=N)N)NC(=O)[C@H](CCCCNC(=O)COCCOCCNC(=O)COCCOCCNC(=O)CC[C@H](NC(=O)CCCCCCCCCCCCCCCCC(=O)O)C(=O)O)NC(=O)[C@@H](NC(=O)[C@H](CC(=O)O)NC(=O)[C@H](CC(C)C)NC(=O)[C@](C)(Cc1ccccc1)NC(=O)[C@H](CCCCN)NC(=O)[C@H](CO)NC(=O)[C@@H](NC(=O)[C@H](CC(=O)O)NC(=O)[C@H](CO)NC(=O)[C@@H](NC(=O)[C@H](Cc1ccccc1)NC(=O)[C@@H](NC(=O)CNC(=O)[C@H](CCC(N)=O)NC(=O)C(C)(C)NC(=O)[C@@H](N)Cc1c[nH]cn1)[C@@H](C)O)[C@@H](C)O)C(C)C)[C@@H](C)O)C(C)C)C(=O)N[C@@H](CC(C)C)C(=O)NC(C)(C)C(=O)N[C@H](C(=O)N[C@@H](CCC(=O)O)C(=O)O)[C@@H](C)O
B6: Peptide 414 (peptide)
peptide: H[Aib]QGTFTSDVSK[αMeF]LDKK([AEEA-AEEA-γGlu-C18 diacid])RARDFVRWLL[Aib]E-OH
modifications: N-terminus assumed
SMILES: CC(C)C[C@H](NC(=O)[C@H](Cc1c[nH]c2ccccc12)NC(=O)[C@H](CCCNC(=N)N)NC(=O)[C@@H](NC(=O)[C@H](Cc1ccccc1)NC(=O)[C@H](CC(=O)O)NC(=O)[C@H](CCCNC(=N)N)NC(=O)[C@H](C)NC(=O)[C@H](CCCNC(=N)N)NC(=O)[C@H](CCCCNC(=O)COCCOCCNC(=O)COCCOCCNC(=O)CC[C@H](NC(=O)CCCCCCCCCCCCCCCCC(=O)O)C(=O)O)NC(=O)[C@H](CCCCN)NC(=O)[C@H](CC(=O)O)NC(=O)[C@H](CC(C)C)NC(=O)[C@](C)(Cc1ccccc1)NC(=O)[C@H](CCCCN)NC(=O)[C@H](CO)NC(=O)[C@@H](NC(=O)[C@H](CC(=O)O)NC(=O)[C@H](CO)NC(=O)[C@@H](NC(=O)[C@H](Cc1ccccc1)NC(=O)[C@@H](NC(=O)CNC(=O)[C@H](CCC(N)=O)NC(=O)C(C)(C)NC(=O)[C@@H](N)Cc1c[nH]cn1)[C@@H](C)O)[C@@H](C)O)C(C)C)C(C)C)C(=O)N[C@@H](CC(C)C)C(=O)NC(C)(C)C(=O)N[C@@H](CCC(=O)O)C(=O)O
B7: Peptide 412 (peptide)
peptide: H[Aib]QGTFTSDVSK[αMeF]LDTK([AEEA-AEEA-γGlu-C20 diacid])RAQDFVAWLEAGG-OH
modifications: N-terminus assumed
SMILES: CC(C)C[C@H](NC(=O)[C@H](Cc1c[nH]c2ccccc12)NC(=O)[C@H](C)NC(=O)[C@@H](NC(=O)[C@H](Cc1ccccc1)NC(=O)[C@H](CC(=O)O)NC(=O)[C@H](CCC(N)=O)NC(=O)[C@H](C)NC(=O)[C@H](CCCNC(=N)N)NC(=O)[C@H](CCCCNC(=O)COCCOCCNC(=O)COCCOCCNC(=O)CC[C@H](NC(=O)CCCCCCCCCCCCCCCCCCC(=O)O)C(=O)O)NC(=O)[C@@H](NC(=O)[C@H](CC(=O)O)NC(=O)[C@H](CC(C)C)NC(=O)[C@](C)(Cc1ccccc1)NC(=O)[C@H](CCCCN)NC(=O)[C@H](CO)NC(=O)[C@@H](NC(=O)[C@H](CC(=O)O)NC(=O)[C@H](CO)NC(=O)[C@@H](NC(=O)[C@H](Cc1ccccc1)NC(=O)[C@@H](NC(=O)CNC(=O)[C@H](CCC(N)=O)NC(=O)C(C)(C)NC(=O)[C@@H](N)Cc1c[nH]cn1)[C@@H](C)O)[C@@H](C)O)C(C)C)[C@@H](C)O)C(C)C)C(=O)N[C@@H](CCC(=O)O)C(=O)N[C@@H](C)C(=O)NCC(=O)NCC(=O)O

These binders were tested against human GLP-1 receptor (human, UniProt P43220) (assay: cell-based or functional assay).

cAMP production EC50 | Binder
0.209 nM | B1
0.37 nM | B2
0.078 nM | B3
0.406 nM | H[Aib]QGTFTSDVSK[αMeF]LDTK([AEEA-AEEA-γGlu-γGlu-C20 diacid])RAQDFVAWLEAGG-OH [Peptide 413]
0.0981 nM | B4
0.0227 nM | B5
0.0323 nM | B6
0.186 nM | B7

These binders were tested against human glucagon receptor (human, UniProt P47871) (assay: cell-based or functional assay).

cAMP production EC50 | Binder
0.462 nM | B1
0.828 nM | B2
0.455 nM | B3
1.02 nM | H[Aib]QGTFTSDVSK[αMeF]LDTK([AEEA-AEEA-γGlu-γGlu-C20 diacid])RAQDFVAWLEAGG-OH [Peptide 413]
0.378 nM | B4
0.203 nM | B5
0.0269 nM | B6
0.397 nM | B7
